This is an account of results in patent US20180193486A1, “COMPOSITIONS AND METHODS FOR TREATMENT OF AUTOIMMUNE AND OTHER DISEASE” (priority 2010, published 2018).

The target in the series is reconstituted human albumin (Homo sapiens, UniProt P02768). Put plainly: Release of CPT in reconstituted human albumin (PBS solution). Particulars: compared with PBS. It counts as in vitro ADME.
reconstituted human albumin, sequence (P02768 25-609): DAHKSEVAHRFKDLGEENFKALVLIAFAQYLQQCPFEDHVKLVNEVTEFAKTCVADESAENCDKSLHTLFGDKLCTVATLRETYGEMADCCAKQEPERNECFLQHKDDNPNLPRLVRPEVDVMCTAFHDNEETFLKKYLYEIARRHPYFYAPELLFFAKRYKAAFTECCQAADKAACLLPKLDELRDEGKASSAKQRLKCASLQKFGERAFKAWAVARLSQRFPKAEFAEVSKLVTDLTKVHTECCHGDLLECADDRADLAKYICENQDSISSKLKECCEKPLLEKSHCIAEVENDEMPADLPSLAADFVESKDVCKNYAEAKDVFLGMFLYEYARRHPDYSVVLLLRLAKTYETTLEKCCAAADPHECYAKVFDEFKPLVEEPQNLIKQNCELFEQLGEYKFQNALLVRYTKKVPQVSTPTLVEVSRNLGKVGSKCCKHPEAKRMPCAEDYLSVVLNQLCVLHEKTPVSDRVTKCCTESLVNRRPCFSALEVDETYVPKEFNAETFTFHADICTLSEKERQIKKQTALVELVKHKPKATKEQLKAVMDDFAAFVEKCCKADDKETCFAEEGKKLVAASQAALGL

Procedure: This solution was added to a lyophilized powder of human plasma to reconstitute 100% human plasma by the recommended amount. The solution was divided into equal volume (250 μL) to 1.5 mL Eppendorf tubes, incubated at 37° C., and stopped at selected time point. Samples were stored at −80° C. until the analysis. Samples were separated from plasma by solid phase extraction columns. The solid phase extraction cartridge (Oasis HLB 1 cc cartridge from Waters) was pre-conditioned with 1 mL of acetonitrile and then with 1 mL of 8.5% H3PO4 before loading. Samples were acidified with equal volume of 8.5% H3PO4 prior to loading. After the acidified solution was loaded on the cartridge, the bed was washed with 3×1 mL of water. Released CPT and polymer conjugate were eluted with 3×1 mL of a solution mixture of acetonitrile and potassium phosphate buffer (pH 4.1) (60/40 v/v). The eluted solution was diluted to 5 mL total volume in a 5 mL volumetric flask. 30 μL of such solution was injected into the HPLC. The peak area from the CPT lactone form was integrated and compared to a standard curve.

“Poly(CDDCys-PA-PEG)-GlyGlyGly-CPT [HGGG6]”: the “CPT release rate in the presence of albumin” value is listed as “on the same order of magnitude as in PBS”.
As to Poly(CDDCys-PA-PEG)-Gly-CPT [HG6], the “CPT release rate in the presence of albumin” value is “on the same order of magnitude as in PBS”.
